From paper PMC4743056 come the findings set out here.

Holding throughout (assay): fluorescence polarization
The target of one data set is hPRDM9A ZnF8-11 (Homo sapiens, allele A, UniProt Q9NQV7 717-830).
In the next data set the target is hPRDM9A ZnF8-13 (Homo sapiens, allele A, UniProt Q9NQV7 717-894).
Data set [1] concerns the target hPRDM9A ZnF8-12 (allele A) (Homo sapiens, allele A, UniProt Q9NQV7 717-858).
Data set [2] has as its target hPRDM9 ZnF8-12 N789H (allele L20) (Homo sapiens, allele L20, UniProt Q9NQV7 717-858, N790H).

Sequence of hPRDM9 ZnF8-12 N789H (allele L20) (Q9NQV7 717-858 N790H): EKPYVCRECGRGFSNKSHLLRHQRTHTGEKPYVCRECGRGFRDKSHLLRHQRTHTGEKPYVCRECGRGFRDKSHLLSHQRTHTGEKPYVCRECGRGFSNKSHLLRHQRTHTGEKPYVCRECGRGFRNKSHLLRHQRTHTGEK
Sequence of hPRDM9A ZnF8-13 (Q9NQV7 717-894): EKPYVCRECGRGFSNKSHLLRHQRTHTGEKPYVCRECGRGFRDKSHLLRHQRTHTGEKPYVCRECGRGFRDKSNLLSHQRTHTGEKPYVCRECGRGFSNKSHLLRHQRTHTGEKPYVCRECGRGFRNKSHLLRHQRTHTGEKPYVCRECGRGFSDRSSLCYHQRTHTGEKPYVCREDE
Sequence of hPRDM9A ZnF8-11 (Q9NQV7 717-830): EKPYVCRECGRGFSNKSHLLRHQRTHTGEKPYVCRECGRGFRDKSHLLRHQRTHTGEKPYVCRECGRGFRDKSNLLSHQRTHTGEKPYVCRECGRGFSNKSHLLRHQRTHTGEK
Sequence of hPRDM9A ZnF8-12 (allele A) (Q9NQV7 717-858): as the sequence (Q9NQV7 717-858 N790H) above, with H74N counted along it

B1: THE1B 24-bp (dsDNA)
DNA 1: GAGGCCTCCCTAGCCACGTGGAAC
DNA 2: GTTCCACGTGGCTAGGGAGGCCTC
As for B1, the binding signal in the data set with hPRDM9A ZnF8-11 is ~12 fold lower affinity than ZnF8-12; in the data set with hPRDM9A ZnF8-13 it was ~1 fold (similar to ZnF8-12).

B2: THE1B with 5mC at position 17 bottom strand (dsDNA)
DNA 1: GAGGCCTCCCTAGCCACGTGGAAC
DNA 2: GTTCCACGTGGCTAGGGAGGCCTC
modifications: 5-methylcytosine at bottom strand base 7 (C of G:C bp 17)
In the case of B2, in data set [1], the binding signal was ~1 fold (same as unmethylated).

B3: THE1B T:A to C:G (dsDNA)
DNA 1: GAGGCCTCCCCAGCCACGTGGAAC
DNA 2: GTTCCACGTGGCTGGGGAGGCCTC
Regarding B3, in data set [2], the binding result was “binds”.
